Assay results: CN112300278A (UNIV SHANGHAI JIAOTONG, dated 2021)

Molecular target: T1, 人EGFR (human epidermal growth factor receptor) (human, UniProt P00533 25-1210)
T1 construct: whole, on cells; The target is on tumour cell lines that naturally express EGFR; No recombinant EGFR was used; also called 表皮生长因子受体; EGFR分子
Experiment: flow cytometry on MAD-MB-231 cells highly expressing EGFR; 293F supernatant (~20ug antibody), FITC donkey anti-human IgG

B1: CET06 (antibody, V domains shown)
VH: QVQLTQSGPGLVKPSETLSQTCTVSGFSLTNYGVHWVRQSPGKGLEWLGVIWSGGNTDYNTPFTSRLTISVDTSKNQVSLKLSSVTSNDTAVYYCARALTYYDYEFAYWGQGTLVTVSA
VL: DISLTQSPVFLSVTPGEKVESECRASQSIGTNIHWYQQKPDQSPKLLIKYASESISGVPSRFSGSGSGTDFTLTINSVESEDIADYYCQQNNNWPTTFGAGTKLELKR
notes: the summary and claim 2 give the reverse; also called 抗人EGFR嵌合抗体CET06
Question: Does B1 bind?
Answer: Result: binds
